Experimental data as given in article PMC2812517 (The Journal of Cell Biology, 2010).

Biological target: GST-LC3B (UniProt Q9GZQ8 1-120)
Assay: pull-down

- binding result: binds
B1: MBP-FYCO1(863–1,478) (domain or fragment)
chain: AQQREEELRALQEELSQAKCSSEEAQLEHAELQEQLHRANTDTAELGIQVCALTVEKERVEEALACAVQELQDAKEAASREREGLERQVAGLQQEKESLQEKLKAAKAAAGSLPGLQAQLAQAEQRAQSLQEAAHQELNTLKFQLSAEIMDYQSRLKNAGEECKSLRGQLEEQGRQLQAAEEAVEKLKATQADMGEKLSCTSNHLAECQAAMLRKDKEGAALREDLERTQKELEKATTKIQEYYNKLCQEVTNRERNDQKMLADLDDLNRTKKYLEERLIELLRDKDALWQKSDALEFQQKLSAEERWLGDTEANHCLDCKREFSWMVRRHHCRICGRIFCYYCCNNYVLSKHGGKKERCCRACFQKLSEGPGSPDSSGSGTSQGEPSPALSPASPGPQATGGQGANTDYRPPDDAVFDIITDEELCQIQESGSSLPETPTETDSLDPNAAEQDTTSTSLTPEDTEDMPVGQDSEICLLKSGELMIKVPLTVDEIASFGEGSRELFVRSSTYSLIPITVAEAGLTISWVFSSDPKSISFSVVFQEAEDTPLDQCKVLIPTTRCNSHKENIQGQLKVRTPGIYMLIFDNTFSRFVSKKVFYHLTVDRPVIYDGSDFL
